Target: T1, WT DprA (Streptococcus pneumoniae, UniProt Q8DPI7 1-282)
T1 sequence: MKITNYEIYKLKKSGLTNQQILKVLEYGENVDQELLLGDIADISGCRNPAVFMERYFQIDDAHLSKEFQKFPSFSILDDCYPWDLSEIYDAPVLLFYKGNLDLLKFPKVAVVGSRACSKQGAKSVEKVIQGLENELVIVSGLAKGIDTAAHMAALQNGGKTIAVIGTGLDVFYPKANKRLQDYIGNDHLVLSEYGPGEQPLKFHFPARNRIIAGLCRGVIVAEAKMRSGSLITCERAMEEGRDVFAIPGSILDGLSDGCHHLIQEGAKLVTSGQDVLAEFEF
Test: fluorescence anisotropy; Pull-down: 200 mM NaCl, 20 mM Tris-HCl pH 7.5, 20 C, 30 min; anisotropy buffer not in the material
Details: protein: recombinant; chain copies: 2; label: fluorescein

## TTTTTTTTTTTTTTTTTTTT (ssDNA) [dT20]
  binding result: binds

Reference: PMC4066776, “Molecular determinants of the DprA−RecA interaction for nucleation on ssDNA”
